Measurements: the nanobody polyreactivity screen of Harvey et al. (2022)

Experiment: yeast display, Sf9 membrane polyspecificity reagent, FACS + sequencing; frameworks hold sequencing errors
Outline: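 A synthetic nanobody library was expressed on Saccharomyces cerevisiae BJ5465 by galactose induction for 36–48 hours. The library was stained for 1 hour at 4 °C with 10% biotinylated, detergent-solubilized Sf9 membrane reagent and enriched with streptavidin microbeads before FACS. Low and high (top ~1%) gates were set on anti-HA fluorescence for expression and streptavidin fluorescence for reagent binding, and each polyreactivity label reflects the gate of origin.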

Q: For “QVQLVESGGGLVHAGGSLRLSCAASGRIFYKYAMAWYRQAPGKERELVAAISTRGGSTYYADSVKWRFTISRDNAKNTVYLQMNSLKPEDTAVYYCAALSAYGYDYWGQGTQVTVSS”, which “polyreactivity (PSR sort gate)” value is on record?
A: high polyreactivity

Q: With “QVQLVESGGGLVHAGGSLRLSCAASGRIFYYNAMGWYRQAPGKEREFVAAIRSSGGSTYYSDSVKGRFTISRDNAKNTVYLQMNSLKPEDTAVYYCAADFYGLGDYGVDYWGQGTQVTVSS” as the sequence, how does the “polyreactivity (PSR sort gate)” value read?
A: low polyreactivity

Q: Which “polyreactivity (PSR sort gate)” value does the source give for “QVQLVESGGGLVHAGGSLRLSCAASGRIYYFNAMGWYRQAPGKERELVATITYIGGSTHYADSEKGRFTISRDNAKNTVYLQMNSLKPEVTAVYYCAVRDGKDTDTYWYGYWGQGTQVTVSS” here?
A: low polyreactivity

Q: With “QVQLVESGGGLVHAGGSLRLSCAASGRTFSYYTMAWYRQAPGKERELVAAISGRGGSTYYADSVKGRFTISRDNAKNTVYLQMNSLKPEDTAVYYCNVVKQYLGGVPDFDYWGQGTQVTVSS” as the sequence, how does the “polyreactivity (PSR sort gate)” value read?
A: low polyreactivity

Q: Which “polyreactivity (PSR sort gate)” value does the source give for “QVQLVESGGGLVHAGGSLRLSCAASGRTFTRNAMGWYRQAPGKERELVAAISISGGRTYYADSVKGRFTISRDNAKNTVSLQMNSLKPEDTAVYYCANVTTSKYDYDYWGQGTQVTVSS” here?
A: high polyreactivity

Q: Which “polyreactivity (PSR sort gate)” value does the source give for “QVQLVESGGGLVHAGGSLRLSCAASGRTFYGNAMGWYRQAPGKEREFVAGISWRGGRTYYADSVKGRFTISRDNAKNTVYLQMHSLKPEDTGVYYCNARYIYTRPRPRNYWGLGTQVTVSS” here?
A: high polyreactivity

Q: With “QVQLVESGGGLVHAGGSLRLSCAASGRTLGGYAMGWYRQAPGKERELVAAISWNGGSTYYADSVKVRFTISRDNAKNTVYFQMNCLKPEDSAVYYCARVYSGPKAGAYDYWGQGTQVTVSS” as the sequence, how does the “polyreactivity (PSR sort gate)” value read?
A: high polyreactivity

Q: With “QVQLVESGGGLVHAGGSLRLSCAASGSFFRSYAMGWYRQAPGKEMEWVATISSSTGSTYYADSVKGRFTISRDNAKNTVYLQMNSLKPEDTSVYYCAAVQPVKSCSGYHFWYYWGQGTQVTVSS” as the sequence, how does the “polyreactivity (PSR sort gate)” value read?
A: high polyreactivity

Q: With “QVQLVESGGGLVHAGGSLRLSCAASGSIFDYYAMGWYRQAPGKERELVAAISTSTSSTYYADSVKGRFTISRDNAKNTVCLQMNSLKPEDTAVYYCAAEGESQPESPGYDYWGQGTQVTVSS” as the sequence, how does the “polyreactivity (PSR sort gate)” value read?
A: low polyreactivity

Q: For “QVQLVESGGGLVHAGGSLRLSCAASGSIFGDYAMGWYRQAPGKERELVAAITRRGSTYYADSVKGRFTISRDNAKNTVYLQMNSLIPEDTAVFYCAKDVYPGRAGRPGIPYPYDYWGQGTQVTVSS”, which “polyreactivity (PSR sort gate)” value is on record?
A: low polyreactivity

Q: With “QVQLVESGGGLVHAGGSLRLSCAASGSIFGTNAMGWYRQAPGQERELVAAISYSGGSTYYADSVKGRFTISRDPAKNTVYLQMNSLKPDDTAVYYCAKVVRYWWERDYWGKGTQVTVSS” as the sequence, how does the “polyreactivity (PSR sort gate)” value read?
A: high polyreactivity

Q: Which “polyreactivity (PSR sort gate)” value does the source give for “QVQLVESGGGLVHAGGSLRLSCAASGSIFGVNMGWYRQAPGKERELVASITSGGSTNYADSVKGRFTISRDNAKNTVYLQMNSLKPEDTAVYYCAARAERVREYNYWGQGTQVTVSS” here?
A: low polyreactivity

Q: For “QVQLVESGGGLVHAGGSLRLSCAASGSIFKYYAMGWYRQAPGKERELVAAISSGGSTNYADSVKGRFTISRDNAKNTVYLQMNSLKPEDTAVYYCAVDRYCWLDGYDYWGQGTQVTVSS”, which “polyreactivity (PSR sort gate)” value is on record?
A: high polyreactivity

Q: For “QVQLVESGGGLVHAGGSLRLSCAASGSIFTRNAMGWYRQAPGKERELVAAISRRGVSTYYADSVKGRFTISRDNAKNTVYLQMNSLKPEDTAVYYCNATIRYYRRGKLYDYWGQGTQVTVSS”, which “polyreactivity (PSR sort gate)” value is on record?
A: high polyreactivity

Q: For “QVQLVESGGGLVHAGGSLRLSCAASGSIFVPYALGWYRQAPGKDRELVAAMTSSGSSTYYADSVKGRFTISRDNAKNTVYLQMNSLKPDDTAGYYCAADYFDWEGNGYYYWGQGNQVTVSS”, which “polyreactivity (PSR sort gate)” value is on record?
A: high polyreactivity

Q: With “QVQLVESGGGLVHAGGSLRLSCAASGSIFYNYAKGWYRQAPGKERELVAAIDSGGSTYYADSVKGRFTISRDNAKNTVYLQMNSLKPEDSAVYSCAADTYWFVYYGYDYWGQGTQVTVSS” as the sequence, how does the “polyreactivity (PSR sort gate)” value read?
A: low polyreactivity
